The values that follow come from PMC12522135, “Engineering a Coiled-Coil Protein for DARPin Presentation as a Potent SARS-CoV‑2 Therapeutic” (Biomacromolecules, 2025).

To fix the notation:
B1: HEX-D3 (designed binder)
chain: DLGKKLLQAARAGQLDEVRELLKAGADVNAKDQEGITPLHVAAHQGHLEIVEVLLKAGADVNAKDVWGRTPLHLAAWRGHLEIVEVLLKAGADVNAKDHAGATPLHAAALSGHLEIVEVLLKAGADVNAQDKSGKTPADLAARAGHQDIAEVLQKAAGGGSGGGSGGGSGGGSGELKAIAQELKAIAKELKAIAWELKAIAQGAGGGGSGGGSGGGSGGGSDLGKKLLQAARAGQLDEVRELLKAGADVNAKDQEGITPLHVAAHQGHLEIVEVLLKAGADVNAKDVWGRTPLHLAAWRGHLEIVEVLLKAGADVNAKDHAGATPLHAAALSGHLEIVEVLLKAGADVNAQDKSGKTPADLAARAGHQDIAEVLQKAA
B2: HEX-D1 (designed binder)
chain: DLGKKLLQAARAGQLDEVRELLKAGADVNAKDREGITPLHLAAQHGHLEIVEVLLKAGADVNAKDVWGRTPLHLAAWQGHLEIVEVLLKAGADVNAKDLAGATPLHVAALYGHLEIVEVLLKAGADVNAQDKSGKTPADLAARAGHQDIAEVLQKAAGGGSGGGSGGGSGGGSGELKAIAQELKAIAKELKAIAWELKAIAQGAGGGGSGGGSGGGSGGGSDLGKKLLQAARAGQLDEVRELLKAGADVNAKDREGITPLHLAAQHGHLEIVEVLLKAGADVNAKDVWGRTPLHLAAWQGHLEIVEVLLKAGADVNAKDLAGATPLHVAALYGHLEIVEVLLKAGADVNAQDKSGKTPADLAARAGHQDIAEVLQKAA
B3: Linear D1 (designed binder)
chain: DLGKKLLQAARAGQLDEVRELLKAGADVNAKDREGITPLHLAAQHGHLEIVEVLLKAGADVNAKDVWGRTPLHLAAWQGHLEIVEVLLKAGADVNAKDLAGATPLHVAALYGHLEIVEVLLKAGADVNAQDKSGKTPADLAARAGHQDIAEVLQKAAGGGSGGGSGGGSGGGSDLGKKLLQAARAGQLDEVRELLKAGADVNAKDREGITPLHLAAQHGHLEIVEVLLKAGADVNAKDVWGRTPLHLAAWQGHLEIVEVLLKAGADVNAKDLAGATPLHVAALYGHLEIVEVLLKAGADVNAQDKSGKTPADLAARAGHQDIAEVLQKAAGGGSGGGSGGGSGGGSDLGKKLLQAARAGQLDEVRELLKAGADVNAKDREGITPLHLAAQHGHLEIVEVLLKAGADVNAKDVWGRTPLHLAAWQGHLEIVEVLLKAGADVNAKDLAGATPLHVAALYGHLEIVEVLLKAGADVNAQDKSGKTPADLAARAGHQDIAEVLQKAA
B4: Linear D3 (designed binder)
chain: DLGKKLLQAARAGQLDEVRELLKAGADVNAKDQEGITPLHVAAHQGHLEIVEVLLKAGADVNAKDVWGRTPLHLAAWRGHLEIVEVLLKAGADVNAKDHAGATPLHAAALSGHLEIVEVLLKAGADVNAQDKSGKTPADLAARAGHQDIAEVLQKAAGGGSGGGSGGGSGGGSDLGKKLLQAARAGQLDEVRELLKAGADVNAKDQEGITPLHVAAHQGHLEIVEVLLKAGADVNAKDVWGRTPLHLAAWRGHLEIVEVLLKAGADVNAKDHAGATPLHAAALSGHLEIVEVLLKAGADVNAQDKSGKTPADLAARAGHQDIAEVLQKAAGGGSGGGSGGGSGGGSDLGKKLLQAARAGQLDEVRELLKAGADVNAKDQEGITPLHVAAHQGHLEIVEVLLKAGADVNAKDVWGRTPLHLAAWRGHLEIVEVLLKAGADVNAKDHAGATPLHAAALSGHLEIVEVLLKAGADVNAQDKSGKTPADLAARAGHQDIAEVLQKAA
B5: Linear D2 (designed binder)
chain: DLGKKLLQAARAGQLDEVRELLKAGADVNAKDREGKTPLHVAAQEGHLEIVEVLLKAGADVNAKDVWGRTPLHLAAWIGHLEIVEVLLKAGADVNAKDVSGATPLHAAALHGHLEIVEVLLNAGADVNAQDKSGKTPADLAARAGHQDIAEVLQKAAGGGSGGGSGGGSGGGSDLGKKLLQAARAGQLDEVRELLKAGADVNAKDREGKTPLHVAAQEGHLEIVEVLLKAGADVNAKDVWGRTPLHLAAWIGHLEIVEVLLKAGADVNAKDVSGATPLHAAALHGHLEIVEVLLNAGADVNAQDKSGKTPADLAARAGHQDIAEVLQKAAGGGSGGGSGGGSGGGSDLGKKLLQAARAGQLDEVRELLKAGADVNAKDREGKTPLHVAAQEGHLEIVEVLLKAGADVNAKDVWGRTPLHLAAWIGHLEIVEVLLKAGADVNAKDVSGATPLHAAALHGHLEIVEVLLNAGADVNAQDKSGKTPADLAARAGHQDIAEVLQKAA
B6: HEX-D2 (designed binder)
chain: DLGKKLLQAARAGQLDEVRELLKAGADVNAKDREGKTPLHVAAQEGHLEIVEVLLKAGADVNAKDVWGRTPLHLAAWIGHLEIVEVLLKAGADVNAKDVSGATPLHAAALHGHLEIVEVLLNAGADVNAQDKSGKTPADLAARAGHQDIAEVLQKAAGGGSGGGSGGGSGGGSGELKAIAQELKAIAKELKAIAWELKAIAQGAGGGGSGGGSGGGSGGGSDLGKKLLQAARAGQLDEVRELLKAGADVNAKDREGKTPLHVAAQEGHLEIVEVLLKAGADVNAKDVWGRTPLHLAAWIGHLEIVEVLLKAGADVNAKDVSGATPLHAAALHGHLEIVEVLLNAGADVNAQDKSGKTPADLAARAGHQDIAEVLQKAA

Bounds are passed on as bounds.

This test deals with SARS-CoV-2 RBD protein (SARS-CoV-2 (Wuhan-Hu-1), UniProt P0DTC2 319-541). In words: BLI. The following applies: both partners purified.
As to B1, the Kd (as a rule, the concentration at which binding is half-saturated) was under 1 pM.

With B2, the Kd was under 1 pM.

Regarding B3, the Kd was under 1 pM.

B4 yielded a Kd of under 1 pM.

As to B5, the Kd was under 1 pM.

Molecule B6 came in with a Kd of under 1 pM.
